Patent US6638518B1 (priority 1999, dated 2003)
Like-named read-outs stand apart in the source and are kept apart here.

Assays:
human fibronectin = molecular target: T1, human fibronectin (Homo sapiens, UniProt P02751); test: Attachment of FAP to fibronectin (biotinylated fusion proteins on coated wells); type: binding
T1 construct: purchased Collaborative Biomedical Products, Bedford, Mass
Experimental: Ninety-six-well Immulon II plates (Dynatech, Chantilly, Va.) were coated with 1 μg of human fibronectin (Collaborative Biomedical Products, Bedford, Mass.) or bovine serum albumin (BSA) at 37° C. overnight. Recombinant FAP-B, FAP-A, and β-galactosidase fusion proteins were produced in the pTrcHis vector and purified as described for FAP-B, were biotinylated with NHS-LC-Biotin (Pierce, Rockford, Ill.). Biotinylated FAP-B, FAP-A and β-galactasidase fusion proteins (0.5 μg and 2 μg) were added to wells coated with fibronectin or BSA and incubated at 25° C. for 1 hour. The bound fusion proteins were detected with streptavidin-HRP (1:10,000 dilution; Pierce) and o-phenylenediamine dihydrochloride (Sigma) substrate.

[1] = system: BCG attachment to fibronectin; type: binding, M. bovis BCG; settings: recombinant FAP 1 μM or peptide, 90 minutes, 37° C.; FIG. 4

T1 sequence (P02751 32-2477): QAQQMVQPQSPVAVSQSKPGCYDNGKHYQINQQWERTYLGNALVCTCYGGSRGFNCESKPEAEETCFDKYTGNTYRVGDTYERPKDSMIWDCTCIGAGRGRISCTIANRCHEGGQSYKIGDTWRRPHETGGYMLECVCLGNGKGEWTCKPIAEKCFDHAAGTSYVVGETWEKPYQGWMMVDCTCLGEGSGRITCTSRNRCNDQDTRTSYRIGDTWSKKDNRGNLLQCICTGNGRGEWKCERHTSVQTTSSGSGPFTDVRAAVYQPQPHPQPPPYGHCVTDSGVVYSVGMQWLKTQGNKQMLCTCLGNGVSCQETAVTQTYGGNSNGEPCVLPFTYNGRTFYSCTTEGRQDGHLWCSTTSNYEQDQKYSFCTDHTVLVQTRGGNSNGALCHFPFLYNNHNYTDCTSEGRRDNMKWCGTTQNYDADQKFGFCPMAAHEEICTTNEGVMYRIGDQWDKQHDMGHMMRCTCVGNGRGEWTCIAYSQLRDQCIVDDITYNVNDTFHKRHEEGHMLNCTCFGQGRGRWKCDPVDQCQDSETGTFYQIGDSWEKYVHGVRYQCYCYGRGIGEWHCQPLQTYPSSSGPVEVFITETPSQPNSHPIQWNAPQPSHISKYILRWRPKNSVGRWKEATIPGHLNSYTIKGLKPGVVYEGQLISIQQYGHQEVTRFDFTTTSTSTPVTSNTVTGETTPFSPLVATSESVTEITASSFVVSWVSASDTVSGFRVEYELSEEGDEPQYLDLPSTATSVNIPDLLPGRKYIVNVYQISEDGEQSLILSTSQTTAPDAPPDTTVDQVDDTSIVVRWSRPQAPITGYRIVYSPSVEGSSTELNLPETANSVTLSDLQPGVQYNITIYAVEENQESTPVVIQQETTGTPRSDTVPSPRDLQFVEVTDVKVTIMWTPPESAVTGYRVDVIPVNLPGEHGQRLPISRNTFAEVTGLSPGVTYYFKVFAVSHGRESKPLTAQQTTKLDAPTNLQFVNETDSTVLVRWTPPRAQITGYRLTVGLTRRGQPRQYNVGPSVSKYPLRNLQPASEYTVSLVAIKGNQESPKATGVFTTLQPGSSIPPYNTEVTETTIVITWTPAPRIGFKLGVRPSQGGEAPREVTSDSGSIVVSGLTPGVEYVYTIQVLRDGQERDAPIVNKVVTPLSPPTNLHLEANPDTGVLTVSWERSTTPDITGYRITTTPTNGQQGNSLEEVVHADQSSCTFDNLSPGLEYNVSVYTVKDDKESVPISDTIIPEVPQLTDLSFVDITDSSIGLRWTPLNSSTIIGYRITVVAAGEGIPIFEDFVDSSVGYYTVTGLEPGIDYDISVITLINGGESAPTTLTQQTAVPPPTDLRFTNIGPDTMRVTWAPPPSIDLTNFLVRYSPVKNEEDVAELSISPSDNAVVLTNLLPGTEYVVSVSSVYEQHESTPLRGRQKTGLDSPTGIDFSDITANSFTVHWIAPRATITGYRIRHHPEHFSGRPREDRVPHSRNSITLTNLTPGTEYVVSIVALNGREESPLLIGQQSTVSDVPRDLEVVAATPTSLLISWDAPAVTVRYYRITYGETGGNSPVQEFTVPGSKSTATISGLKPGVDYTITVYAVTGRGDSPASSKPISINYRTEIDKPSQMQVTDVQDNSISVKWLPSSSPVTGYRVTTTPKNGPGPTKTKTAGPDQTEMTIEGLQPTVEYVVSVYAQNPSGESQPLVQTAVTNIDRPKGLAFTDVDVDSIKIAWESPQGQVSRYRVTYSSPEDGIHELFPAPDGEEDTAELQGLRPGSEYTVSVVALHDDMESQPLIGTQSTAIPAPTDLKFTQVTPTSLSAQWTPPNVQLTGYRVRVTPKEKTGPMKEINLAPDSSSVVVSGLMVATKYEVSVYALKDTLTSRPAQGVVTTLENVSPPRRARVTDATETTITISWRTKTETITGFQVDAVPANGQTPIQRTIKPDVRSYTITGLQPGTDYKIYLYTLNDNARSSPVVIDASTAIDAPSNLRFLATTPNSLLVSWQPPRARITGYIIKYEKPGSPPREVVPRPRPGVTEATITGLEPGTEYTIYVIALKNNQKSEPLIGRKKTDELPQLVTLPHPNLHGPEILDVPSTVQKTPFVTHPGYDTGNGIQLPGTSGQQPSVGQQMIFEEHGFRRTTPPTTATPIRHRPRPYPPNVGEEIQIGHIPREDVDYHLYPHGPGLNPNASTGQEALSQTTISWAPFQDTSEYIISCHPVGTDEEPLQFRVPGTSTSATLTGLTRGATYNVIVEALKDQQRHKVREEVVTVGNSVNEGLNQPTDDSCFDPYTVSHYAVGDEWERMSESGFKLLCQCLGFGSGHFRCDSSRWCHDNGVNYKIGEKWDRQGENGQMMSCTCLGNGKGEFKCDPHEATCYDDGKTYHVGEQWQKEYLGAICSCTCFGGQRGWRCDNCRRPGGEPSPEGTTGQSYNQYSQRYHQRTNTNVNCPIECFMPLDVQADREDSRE

Molecule | binding to fibronectin-coated wells (human fibronectin) | inhibition of BCG attachment to fibronectin [1] | binding to fibronectin-coated wells (human fibronectin; biotinylated fusion proteins 0.5 μg and 2 μg, 25° C., 1 hour, FIG. 2)
β-galactosidase: Control recombinant β-galactosidase fusion protein produced in the pTrcHis vector | did not bind to fibronectin |  | 
FAP-A269-292: Synthesized peptide of amino acids 269-292 of FAP-A, a conserved fibronectin binding region (GNRQRWFVVWLGTSNDPVDKVAAK) |  | inhibit BCG attachment to fibronectin in an equivalent manner | 
FAP-A: Fibronectin attachment protein produced by M. avium (SEQ ID NO:5, GenBank AAB50543), recombinant fusion protein (protein, listed as Mycobacterium avium, recombinant fusion partner) MDQVEATSTRRKGLWTTLAITTVSGASAVVIALPETSHADPEVPTPVPPSTATTPHPRRRRIPGQPADNAQAGAPAPAPNGQQRPPRRRRMIPTRAPPPAGAPPNGAPPAAPNGAPPPPVDPNAPPPPPADPNAGRIPNSYVLPAGWVESDASHLDYGSALLSKVTGPPPMPDQPPPVANDTRIVMGRVDQKLYASAEANNAKAAVGLGSDMGEFFMPYPGTRINQDSTPLNGANGSTGSASYYEVKFSDASKPNGQIWTGVIGSANAGNRQRWFVVWLGTSNDPVDKVAAKALAESIQAWTPPPAPPAAPGGPGAPAPGAPGAPAPGAPAAPGVTAPAAPAPAAPGAPAAPGAPAPEPGQAPAVEVSPTPTPTPQQTLSA |  | inhibit BCG attachment to fibronectin in an equivalent manner | bound to wells coated with fibronectin
